B1: GFP-Ait1 (natural protein, S. cerevisiae, UniProt Q12301 1-547, looked up)
chain: MVRLNHAASYFMPIFCSTRPHIVILSALFSISLFSLFYASSELLLHQYDDPLMFKPNSQDYFRTFLLGLFSPFLYYFLKTFLFNINQRFLILNLIVDFPINDVFMLLILIGLAYPQVQDHEGGTIKHKECSWHIIPRQAYIFGISWALGEFTICIIGNLFNYQEIADPNINSGFTHQESANTYCNNNDMSHNDDCGCSTEYRPNVVDRSDITLSKCIEVRNDSSSISNNVYSSEYHPIKPLRSSSSTYGSIRQQPHENKKQLHVPDNSQDDTIIMMNPIDNSLKLTTLDTGDLSFPIDEEQPILKKSFGYTWAVPNENTQNTTKSFTPIKRFIAFSTAYQLVTGLLLMILVVGSNIMLTIGESLILSMYFVYVRGHEGLFTPVVNYFGSRTISNFILCVIIPFISLNFLINTSIYLRRELDDWFNNSQGEFEDDDENTISKRVATNQEYQHPLSANYISMDSPDVINSSPGHFGMNSGQLLGNTTLYYGSLNGDDDDMTNDSALLRFCKKLVKNWRALARNDSFVLGVMVSWSLLVFVTGILSTVYI
notes: Ait1 (Ydl180w), GPCR-like protein of the vacuolar membrane, S. cerevisiae; The strain list is in Supplementary file 3; source: S. cerevisiae (W303) strain carrying GFP-Ait1, in lysate; not shown: GFP, N-terminal, kept
B2: Gtr1-myc (natural protein, S. cerevisiae, UniProt Q00582 1-310, looked up)
chain: MSSNNRKKLLLMGRSGSGKSSMRSIIFSNYSAFDTRRLGATIDVEHSHLRFLGNMTLNLWDCGGQDVFMENYFTKQKDHIFQMVQVLIHVFDVESTEVLKDIEIFAKALKQLRKYSPDAKIFVLLHKMDLVQLDKREELFQIMMKNLSETSSEFGFPNLIGFPTSIWDESLYKAWSQIVCSLIPNMSNHQSNLKKFKEIMNALEIILFERTTFLVICSSNGENSNENHDSSDNNNVLLDPKRFEKISNIMKNFKQSCTKLKSGFKTLILNNNIYVSELSSNMVCFIVLKDMNIPQELVLENIKKAKEFFQ
notes: Gtr1, small GTPase (homolog of RagA/B), S. cerevisiae; also called Gtr1/2; source: S. cerevisiae (W303) strain carrying Gtr1-myc, in lysate

What was measured:
[1] = biological target: T1, Kog1-FLAG (S. cerevisiae, UniProt P38873 1-1557); assay: co-IP; Kog1-FLAG immunopurified on anti-FLAG beads after DSP crosslinking; blot with anti-GFP and anti-FLAG; with and without amino acids, long-term amino acid and glucose starvation, also with 4x protease inhibitors; conditions: partners not purified
T1 construct: Kog1 (Raptor homolog), subunit of TORC1, S. cerevisiae; Bait on anti-FLAG beads; The strain list is in Supplementary file 3; also called Kog1/Raptor; TORC1 subunit Kog1; source: S. cerevisiae (W303) strain carrying Kog1-FLAG, in lysate
T1 sequence (P38873 whole entry): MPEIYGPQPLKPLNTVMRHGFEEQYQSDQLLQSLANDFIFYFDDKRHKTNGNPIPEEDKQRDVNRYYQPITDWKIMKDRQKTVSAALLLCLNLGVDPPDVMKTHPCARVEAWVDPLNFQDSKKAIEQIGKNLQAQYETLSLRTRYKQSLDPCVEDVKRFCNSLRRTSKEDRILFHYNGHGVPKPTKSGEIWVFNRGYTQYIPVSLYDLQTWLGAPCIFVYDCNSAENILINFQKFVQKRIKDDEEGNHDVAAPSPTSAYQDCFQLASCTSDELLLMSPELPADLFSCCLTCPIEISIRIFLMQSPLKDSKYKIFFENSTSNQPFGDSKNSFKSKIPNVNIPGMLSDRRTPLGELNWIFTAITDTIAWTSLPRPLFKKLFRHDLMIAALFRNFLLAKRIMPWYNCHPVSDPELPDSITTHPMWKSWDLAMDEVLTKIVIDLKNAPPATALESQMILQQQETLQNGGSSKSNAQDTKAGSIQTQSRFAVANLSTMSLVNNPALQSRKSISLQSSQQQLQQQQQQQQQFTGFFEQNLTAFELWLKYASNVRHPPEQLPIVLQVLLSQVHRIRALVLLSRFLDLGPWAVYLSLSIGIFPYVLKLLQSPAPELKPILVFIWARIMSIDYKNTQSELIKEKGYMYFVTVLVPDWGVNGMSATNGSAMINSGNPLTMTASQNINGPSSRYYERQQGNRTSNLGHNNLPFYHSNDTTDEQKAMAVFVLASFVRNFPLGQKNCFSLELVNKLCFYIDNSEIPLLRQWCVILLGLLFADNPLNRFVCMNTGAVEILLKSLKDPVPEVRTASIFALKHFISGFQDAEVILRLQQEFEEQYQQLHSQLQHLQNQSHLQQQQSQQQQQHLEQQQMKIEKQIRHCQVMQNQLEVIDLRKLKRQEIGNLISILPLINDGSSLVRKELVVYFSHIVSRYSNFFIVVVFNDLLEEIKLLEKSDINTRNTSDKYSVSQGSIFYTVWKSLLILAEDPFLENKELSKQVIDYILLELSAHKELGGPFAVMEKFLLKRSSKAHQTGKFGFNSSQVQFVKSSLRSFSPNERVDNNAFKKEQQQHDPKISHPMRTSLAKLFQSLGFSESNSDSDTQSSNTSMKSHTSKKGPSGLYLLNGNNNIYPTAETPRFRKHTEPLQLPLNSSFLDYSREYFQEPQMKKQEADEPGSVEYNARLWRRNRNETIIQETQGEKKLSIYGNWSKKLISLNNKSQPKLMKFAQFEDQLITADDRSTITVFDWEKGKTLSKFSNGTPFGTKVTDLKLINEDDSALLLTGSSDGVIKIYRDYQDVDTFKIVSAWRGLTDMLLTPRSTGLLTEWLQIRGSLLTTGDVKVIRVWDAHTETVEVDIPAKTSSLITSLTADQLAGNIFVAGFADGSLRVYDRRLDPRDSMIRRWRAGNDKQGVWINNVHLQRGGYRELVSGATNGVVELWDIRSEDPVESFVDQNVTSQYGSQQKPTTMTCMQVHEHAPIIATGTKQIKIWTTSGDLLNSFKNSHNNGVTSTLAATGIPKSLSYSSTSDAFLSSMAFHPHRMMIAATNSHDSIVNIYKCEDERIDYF

[2] = biological target: B1; assay: co-IP; GFP-Ait1 or GFP-Ait1C3v2 immunopurified on anti-GFP beads in nonionic detergent (digitonin) without a crosslinker; blot with anti-Myc and anti-GFP; log phase, 30 min amino acid starvation, long-term amino acid and glucose starvation; conditions: partners not purified

B1
amount copurified after long-term amino acid and glucose starvation, relative to log-phase growth [1]: 50 % of the level found in log-phase growth

B2
amount copurified after long-term amino acid and glucose starvation, relative to log-phase growth [2]: 60 % of the level found in log-phase growth

Source: publication PMC9499541, “Ait1 regulates TORC1 signaling and localization in budding yeast” (eLife, 2022)
